Numbering of substitutions follows the chain as printed.
B1: chimeric antibody h12C1 (antibody, V domains shown)
VH: QVQLQESGPELVKPGASVKISCKASGYSFSDYNMSWVKQSNGKSLEWIGIIDPKYGTINYNQKFKGKATLTVDQASSTAYMQLNSLTSEDSAVYYCVRDYYGSSYFDYWGQGTTLTVSS
VL: DIVLTQSPSSIYASLGERVTLTCKASQDIHNYLNWFQQKPGKSPKTLIYRANRLVDGVPSRFSGGGSGQDYSLTISSLEFEDIGIYYCLQYDEFPPTFGGGTRLEIK
notes: also called humanized 12C1; source: Expi293, purified (MabSelect SuRe, SEC); copies: 2 + 2
B2: mAb 1E6 (human) (antibody, V domains shown)
VH: EVQLVQSGAEVKKPGSSVKVSCKASGGTVIDYPITWVRQAPGQGLEWVGGFVPLFRTSNYGQKFQGRVTITADKSTSTASMELNSLTSEDTAIYYCARGDTAMGPFDYWGQGTLVTVSS
VL: SYVLTQPPSLSVAPGKTATLTCGGNNIAGKTVHWYQQRPGQAPVLVISYDSDRPSGIPERFSGSNSANTATLTISRVEAGDEADYYCQVWDRNSDHWVFGGGTKLTVL
notes: source: Expi293, purified (MabSelect SuRe, SEC); copies: 2 + 2
B3: mAb 4B3 (human) (antibody, V domains shown)
VH: QVQLVQSGGGLVKPGGSLRLSCAASGFPFSSYYMSWIRQAPGKGLEWVSDINNSGNVKEYADFVKGRLTISRDNVKNSMYLHMNSLRVEDTAVYYCARNRGRFDVWGQGTLVTVSA
VL: EIVMTQSPGTLSLSPGETATLSCRASQMISSPFLAWYQQRRGQAPRLLIYGASTRATDTPDRFRGSGSGTDFILTISRLEPEDFAVYYCQYYDDSPFTFGQGTKLEIK
notes: also called 4B3-2; source: Expi293, purified (MabSelect SuRe, SEC); copies: 2 + 2

How the values were obtained:
Test in all cases: BLI
Details in all cases: both partners purified
[1] = biological target: T1, fHbp m002419 (Neisseria meningitidis fHbp v3.28, …, chimera)
T1 chain: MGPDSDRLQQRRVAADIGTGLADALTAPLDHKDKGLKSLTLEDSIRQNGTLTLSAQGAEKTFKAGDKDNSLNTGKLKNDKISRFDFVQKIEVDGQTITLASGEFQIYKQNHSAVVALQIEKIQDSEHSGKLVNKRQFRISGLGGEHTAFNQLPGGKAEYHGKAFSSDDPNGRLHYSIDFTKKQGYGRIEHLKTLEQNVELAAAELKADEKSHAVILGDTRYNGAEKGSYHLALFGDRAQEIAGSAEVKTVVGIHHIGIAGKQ

[2] = biological target: T2, fHbp m001659 (Neisseria meningitidis, fHbp …, point mutant)
T2 chain: T1 chain with Y221L, T249S, V251E, G252S

[3] = biological target: T3, fHbp m001099 (Neisseria meningitidis fHbp v3.28-based …, point mutant)
T3 chain: T1 chain with Y221L, N222G, G223S, T249S, G252A

[4] = biological target: T4, fHbp m001524 (Neisseria meningitidis, fHbp …, point mutant)
T4 chain: T1 chain with Y221L, G223Q, V251E, G252S

[5] = biological target: T5, fHbp m002256 (Neisseria meningitidis, engineered fHbp …, chimera)
T5 chain: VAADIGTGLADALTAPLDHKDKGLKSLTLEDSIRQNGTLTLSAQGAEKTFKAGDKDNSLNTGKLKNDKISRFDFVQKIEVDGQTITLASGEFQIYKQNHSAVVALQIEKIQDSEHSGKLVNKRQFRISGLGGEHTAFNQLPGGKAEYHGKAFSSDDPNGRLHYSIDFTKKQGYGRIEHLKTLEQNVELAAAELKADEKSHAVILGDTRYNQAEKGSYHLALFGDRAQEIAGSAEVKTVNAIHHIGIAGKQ

[6] = biological target: T6, fHbp m001720 (Neisseria meningitidis, engineered fHbp …, point mutant)
T6 chain: T5 chain with Y209L, Q211G, T237I, N239V

[7] = biological target: T7, fHbp m001688 (Neisseria meningitidis, engineered fHbp …, point mutant)
T7 chain: T5 chain with Y209L, Q211G, A240G

[8] = biological target: T8, factor H binding protein variant 3.28 (Neisseria meningitidis, fHbp variant …)
T8 construct: also called fHbp v3.28; v3.28 Control (0002)
T8 chain: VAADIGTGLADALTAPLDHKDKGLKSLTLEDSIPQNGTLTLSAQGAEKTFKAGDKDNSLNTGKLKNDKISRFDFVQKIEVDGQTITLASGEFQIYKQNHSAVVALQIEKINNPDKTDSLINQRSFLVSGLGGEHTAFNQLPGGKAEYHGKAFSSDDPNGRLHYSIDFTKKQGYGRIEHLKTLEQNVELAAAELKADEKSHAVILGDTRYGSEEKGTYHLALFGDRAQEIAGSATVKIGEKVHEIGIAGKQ

[9] = biological target: T9, fHbp mutant 0016 (Neisseria meningitidis, fHbp v1.1 mutant, point mutant)
T9 chain: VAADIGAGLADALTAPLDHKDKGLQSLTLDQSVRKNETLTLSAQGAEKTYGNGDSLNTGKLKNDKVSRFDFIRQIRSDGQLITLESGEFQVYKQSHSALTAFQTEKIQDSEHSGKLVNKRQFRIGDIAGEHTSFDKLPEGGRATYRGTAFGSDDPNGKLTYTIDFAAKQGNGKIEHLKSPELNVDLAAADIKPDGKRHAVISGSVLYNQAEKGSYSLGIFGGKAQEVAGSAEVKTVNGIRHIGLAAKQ

Row | Binder | Kd [1] [nM] | koff [1] [s⁻¹] | kon [1] [M⁻¹ s⁻¹] | Kd [2] [nM] | koff [2] [s⁻¹] | kon [2] [M⁻¹ s⁻¹] | Kd [3] [nM] | koff [3] [s⁻¹] | kon [3] [M⁻¹ s⁻¹] | Kd [4] [nM] | koff [4] [s⁻¹] | kon [4] [M⁻¹ s⁻¹] | Kd [5] [nM] | koff [5] [s⁻¹] | kon [5] [M⁻¹ s⁻¹] | Kd [6] [nM] | koff [6] [s⁻¹] | kon [6] [M⁻¹ s⁻¹] | Kd [7] [nM] | koff [7] [s⁻¹] | other results
1 | B1 | 0.237 | 3.39e-05 | 143000 ± 1520 | 1.75 | 0.000578 | 330000 ± 3440 | 44 | 0.0106 | 241000 ± 3220 | 0.701 | 0.000117 | 167000 ± 1950 | 43.6 | 0.0102 | 235000 ± 5060 | 1.04 | 0.000368 | 354900 ± 1290 | 53.8 | 0.0106 | kon [7]: 197000 ± 3980 M⁻¹ s⁻¹
2 | B2 | 0.191 | 5.3e-05 | 277200 ± 2090 | 0.716 | 0.000306 | 427300 ± 1410 | 0.841 | 0.000237 | 281500 ± 1290 | 0.742 | 0.000167 | 224700 ± 1680 | 0.23 | 0.000106 | 460600 ± 4450 | 0.788 | 0.000292 | 370200 ± 1240 | 0.937 | 0.000258 | kon [7]: 275900 ± 1570 M⁻¹ s⁻¹; Kd [8]: 1.76 nM; koff [8]: 0.000238 s⁻¹; kon [8]: 135000 ± 961 M⁻¹ s⁻¹; Kd [9]: 0.69 nM; koff [9]: 0.000223 s⁻¹; kon [9]: 323000 ± 3620 M⁻¹ s⁻¹
3 | B3 |  |  |  |  |  |  |  |  |  |  |  |  |  |  |  |  |  |  |  |  | Kd [8]: 5.15 nM; koff [8]: 0.000542 s⁻¹; kon [8]: 105000 ± 1620 M⁻¹ s⁻¹; Kd [9]: 4.74 nM; koff [9]: 0.00131 s⁻¹; kon [9]: 276800 ± 1380 M⁻¹ s⁻¹

— PMC12319226 (Frontiers in Bioinformatics, 2025)
